Source: patent publication US20240409647A1 (SINOMAB BIOSCIENCE, published 2024)

Key:
[1] = target: T1, human IL-17 receptor subunit E (human, UniProt Q8NFR9 24-454, limits assumed); assay: ELISA, coated receptor; SM17 at 0.00064 µg/mL; well 1
T1 construct: also called hIL17RE
T1 sequence (looked up): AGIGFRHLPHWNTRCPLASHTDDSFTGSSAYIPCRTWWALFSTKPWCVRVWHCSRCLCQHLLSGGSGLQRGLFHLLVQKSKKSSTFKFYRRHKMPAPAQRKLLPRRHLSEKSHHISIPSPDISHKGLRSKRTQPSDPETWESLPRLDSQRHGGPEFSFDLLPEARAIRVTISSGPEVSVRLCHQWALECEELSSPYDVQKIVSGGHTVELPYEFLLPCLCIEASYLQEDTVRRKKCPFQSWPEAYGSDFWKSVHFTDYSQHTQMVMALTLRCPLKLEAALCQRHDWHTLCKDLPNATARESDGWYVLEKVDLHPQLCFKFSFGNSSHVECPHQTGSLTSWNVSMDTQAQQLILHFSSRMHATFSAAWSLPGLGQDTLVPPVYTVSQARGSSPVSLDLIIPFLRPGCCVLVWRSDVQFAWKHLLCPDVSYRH

[2] = target: T2, human IL-17RB protein (recombinant, R&D systems) (human); assay: as above
T2 construct: Bought protein; also called hIL17RB
T2 sequence (Q9NRM6 whole entry, looked up): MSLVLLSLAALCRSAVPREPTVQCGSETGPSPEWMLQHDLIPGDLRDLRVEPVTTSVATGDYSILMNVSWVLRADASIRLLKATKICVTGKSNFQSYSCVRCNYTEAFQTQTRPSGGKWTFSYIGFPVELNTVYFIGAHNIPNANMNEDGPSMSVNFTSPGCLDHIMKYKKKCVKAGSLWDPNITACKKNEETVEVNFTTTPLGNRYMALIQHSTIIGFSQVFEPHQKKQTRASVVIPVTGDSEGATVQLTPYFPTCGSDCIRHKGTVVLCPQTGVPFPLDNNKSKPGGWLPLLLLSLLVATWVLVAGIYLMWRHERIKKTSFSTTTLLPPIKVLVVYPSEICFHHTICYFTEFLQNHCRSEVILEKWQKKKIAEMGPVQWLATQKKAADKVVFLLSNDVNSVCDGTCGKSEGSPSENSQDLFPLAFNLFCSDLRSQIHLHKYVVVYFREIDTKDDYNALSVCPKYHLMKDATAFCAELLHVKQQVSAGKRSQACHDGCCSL

[3] = target: T3, human IL-17 receptor subunit A (human, UniProt Q96F46 33-320); assay: as above
T3 construct: also called IL17RA; hIL17RA

[4] = target: T4, human IL-17 receptor subunit C (human, UniProt Q8NAC3-2 21-467, limits assumed); assay: as above
T4 construct: also called IL17RC; hIL17RC
T4 sequence (looked up): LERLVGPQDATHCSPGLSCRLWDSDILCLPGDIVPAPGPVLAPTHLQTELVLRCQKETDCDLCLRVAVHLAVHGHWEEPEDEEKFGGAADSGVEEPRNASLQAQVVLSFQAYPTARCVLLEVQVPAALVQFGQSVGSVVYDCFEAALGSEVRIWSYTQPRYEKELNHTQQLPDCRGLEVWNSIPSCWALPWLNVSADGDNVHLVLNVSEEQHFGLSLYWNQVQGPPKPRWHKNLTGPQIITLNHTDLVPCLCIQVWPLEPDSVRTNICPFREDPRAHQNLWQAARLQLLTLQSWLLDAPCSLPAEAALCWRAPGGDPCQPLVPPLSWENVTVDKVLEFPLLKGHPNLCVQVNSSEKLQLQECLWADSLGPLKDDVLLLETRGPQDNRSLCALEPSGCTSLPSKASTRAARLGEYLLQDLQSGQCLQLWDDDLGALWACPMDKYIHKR

[5] = target: T1, human IL-17 receptor subunit E; assay: ELISA, coated receptor; SM17 at 0.4 µg/mL; well 1
[6] = target: T5, human IL-17 receptor subunit D (human, UniProt Q8NFM7 28-299, limits assumed); assay: ELISA, coated receptor; SM17 at 0.4 µg/mL; well 1
T5 construct: also called IL17RD; hIL 17RD
T5 sequence (looked up): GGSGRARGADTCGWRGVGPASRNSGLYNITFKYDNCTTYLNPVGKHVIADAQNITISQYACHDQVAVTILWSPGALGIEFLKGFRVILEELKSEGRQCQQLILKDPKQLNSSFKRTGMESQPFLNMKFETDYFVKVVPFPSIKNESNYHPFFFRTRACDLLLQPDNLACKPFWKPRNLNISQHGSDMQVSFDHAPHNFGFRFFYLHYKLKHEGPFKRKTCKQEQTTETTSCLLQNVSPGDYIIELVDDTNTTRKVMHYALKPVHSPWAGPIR

[7] = target: T2, human IL-17RB protein (recombinant, R&D …); assay: ELISA, coated receptor; SM17 at 0.4 µg/mL; well 1
[8] = target: T3, human IL-17 receptor subunit A; assay: ELISA, coated receptor; SM17 at 0.4 µg/mL; well 1
[9] = target: T4, human IL-17 receptor subunit C; assay: ELISA, coated receptor; SM17 at 0.4 µg/mL; well 1
[10] = target: T1, human IL-17 receptor subunit E; assay: ELISA, coated receptor; SM17 at 0.016 µg/mL; well 2
[11] = target: T5, human IL-17 receptor subunit D; assay: as above
[12] = target: T2, human IL-17RB protein (recombinant, R&D …); assay: as above
[13] = target: T3, human IL-17 receptor subunit A; assay: as above
[14] = target: T4, human IL-17 receptor subunit C; assay: as above

B1: SM17 (antibody, human IgG4 S228P, kappa, V domains shown)
VH: QVQLVQSGAEVKKPGASVKVSCKASGYTFISYWMNWVRQAPGQGLEWMGRIDPYDSEIQYNQKFKDRVTMTRDTSISTAYMELSRLRSDDTAVYYCARSGGFDWFAYWGQGTLVTVSS
VL: DIQMTQSPSSLSASVGDRVTITCRASENINSNLAWYQQKPGKAPKLLLYDVTNLADGVPSRFSGSGSGTDYTLTISSLQPEDFATYYCQHFWGPPYTFGGGTKVEIKR
notes: other paragraphs and claim 15 call the same entries VH and VL; also called humanized anti-IL17RB monoclonal antibody
For B1, the “OD 450 nm Absorption” value [1] was 0.09 OD450, the “OD 450 nm Absorption” value [2] was 0.13 OD450 and the “OD 450 nm Absorption” value [3] was 0 OD450. For the same binder, the “OD 450 nm Absorption” value [4] was 0.13 OD450, the “OD 450 nm Absorption” value [5] was 0.08 OD450 and the “OD 450 nm Absorption” value [6] was 0.22 OD450. For the same binder, the “OD 450 nm Absorption” value [7] was 1.26 OD450, the “OD 450 nm Absorption” value [8] was 0.21 OD450 and the “OD 450 nm Absorption” value [9] was 0.25 OD450. The “OD 450 nm Absorption” value [10] was -0.04 OD450, the “OD 450 nm Absorption” value [11] was 0.02 OD450 and the “OD 450 nm Absorption” value [12] was 0.3 OD450. For the same binder, the “OD 450 nm Absorption” value [13] was -0.04 OD450 and the “OD 450 nm Absorption” value [14] was 0.02 OD450.
